Source: article PMC10702826 (EMBO Reports, 2023)
Blank lines part the entries; values can stand above or below the molecule they belong to. Where no end group is shown, it is not given here.

Experiments:
[1] = biological target: charged UFC1 (UFC1~UFM1): isopeptide‐linked UFC1 T106S/C116K ‐ Strep‐tagged UFM1 covalent complex (UniProt Q9Y3C8); experiment: ITC
[2] = biological target: T1, UFC1 (E2), wild type, uncharged (UniProt Q9Y3C8 1-167); experiment: NMR titration
T1 sequence: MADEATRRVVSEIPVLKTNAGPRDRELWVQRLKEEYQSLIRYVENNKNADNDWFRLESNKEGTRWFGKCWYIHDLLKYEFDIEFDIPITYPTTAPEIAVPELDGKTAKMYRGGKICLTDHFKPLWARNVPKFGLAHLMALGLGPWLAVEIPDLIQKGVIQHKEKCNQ

UFC1 K47E = biological target: T2, UFC1 K47E (UniProt Q9Y3C8 1-167, K47E); experiment: ITC
T2 sequence: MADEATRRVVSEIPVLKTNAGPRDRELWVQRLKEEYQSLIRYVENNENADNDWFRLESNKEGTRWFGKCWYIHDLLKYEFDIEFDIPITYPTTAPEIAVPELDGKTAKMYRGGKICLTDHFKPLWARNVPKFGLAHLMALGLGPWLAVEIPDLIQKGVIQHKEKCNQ

[3] = biological target: T1, UFC1 (E2), wild type, uncharged; experiment: ITC

Molecule: DDRGK1‐UFL1 fusion protein (DDRGK1 207–314 ‐ UFL1 1–200) (from UniProt Q96HY6;O94874)
Kd [1]: 2570 nM

B1: UBA5 C‐terminus (UBA5 347–404) (domain or fragment)
chain: SEVSEEELKNFSGPVPDLPEGITVAYTIPKKQEDSVTELTVEDSGESLEDLMAKMKNM
modifications: also: uniformly 15N-labelled
binding result [2]: binds

Other lines, results leading:

Kd [1]: 230 nM
Molecule: DDRGK1ext‐UFL1 extended fusion protein (DDRGK1 87–314 ‐ UFL1 1–200) (from UniProt Q96HY6 87-314; O94874 1-200)

Kd (UFC1 K47E): 33800 nM | Kd [3]: 2300 nM
B2: DDRGK1‐UFL1 fusion protein (DDRGK1 207–314 ‐ UFL1 1–200) (other)
chain: MTEEQSQSFLTEFINYIKQSKVVLLEDLASQVGLRTQDTINRIQDLLAEGTITGVIDDRGKFIYITPEELAAVANFIRQRGRVSIAELAQASNSLIAWGRESPAQAPAMADAWEEIRRLAADFQRAQFAEATQRLSERNCIEIVNKLIAQKQLEVVHTLDGKEYITPAQISKEMRDELHVRGGRVNIVDLQQVINVDLIHIENRIGDIIKSEKHVQLVLGQLIDENYLDRLAEEVNDKLQESGQVTISELCKTYDLPGNFLTQALTQRLGRIISGHIDLDNRGVIFTEAFVARHKARIRGLFSAITRP
